Laboratory results as given in the supplement of paper PMC12764529.
± gives the half width of the 95% confidence interval.

Columns and labels:
[1] = folding stability dG unfold from trypsin proteolysis; higher = more stable
Method in brief: (§1)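 Digests were run with trypsin and chymotrypsin at 11 concentrations in threefold dilutions, plus a no-protease condition, on designed mini-proteins in a PA-tagged cDNA display construct. The mini-proteins were under 80 residues, had no cysteine, and were kept only when AlphaFold2 dimer inter-PAE was above 15. After sequencing, Bayesian fitting of the counts gave K50, from which unfolding free energy was derived against a sequence-predicted unfolded-state K50 and a shared folded-state K50, per protease or combined.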

[2] = folding stability dG unfold from chymotrypsin proteolysis; higher = more stable
Method in brief: as §1

[3] = folding stability dG unfold (combined trypsin and chymotrypsin); higher = more stable
Method in brief: as §1

| Sequence | folding stability dG unfold [1] [kcal/mol] | folding stability dG unfold [2] [kcal/mol] | folding stability dG unfold [3] [kcal/mol] |
| --- | --- | --- | --- |
| SAGGMKPGETWRIRTPGKTITIEVKDGKITVTVEENGKKKTIVVEAETEEEALEALRSIPGLEIEKVSAGGS [r16_583_TrROS_Hall] | 1.73 ± 0.05 | 1.32 ± 0.13 | 1.61 ± 0.16 |
| SAGGSAGGSPLPYLTEDGEVQVVVRIDNSTGTTTVTLTGPDGKLLKTFSVSTDGPAFVVVRAGSAGGSAGGS [r12_960_TrMRF] | 1.34 ± 0.034 | 1.92 ± 0.028 | 1.72 ± 0.064 |
| SAGGDKDNKPPIPTKTITFMLPYDSPEDAKDYAEEIARELFQEEGIPIKVTVQYNPESGWVWVTITIYSAGG [r13_517_TrROS] | 3.49 ± 0.1 | 4.57 ± 0.075 | 4.32 ± 0.12 |
| SKLKIEEIEINPNMPYTISVKLPDGFYISIQYDPGKPDQMKMNIFPPDGKKREHTIPANEPIRINFEIEPSA [r9_875_TrROS] | 1.35 ± 0.034 | 2.55 ± 0.04 | 2.19 ± 0.12 |
| SAGGSMSPWHWARHIAKKLRKKFPPGKKVRIKIEYDDGPVEFEIPPGEWIPIPSNAPIEILNIKVKSAGGSA [r2_391_TrROS] | 1.97 ± 0.034 | 2.36 ± 0.11 | 2.25 ± 0.11 |
| SAGGSAGGSDLPIKIKMEPIPPGMPPGQVYRMEIEIPNGWVIRYSFYFTGGKLEFEPMEIKPVSAGGSAGGS [r12_1049_TrROS] | 2.22 ± 0.19 | 3.58 ± 0.08 | 3.13 ± 0.28 |
| MKVVFTEEELPDAKVRKVFDPETGTITETVTYPSTSYTVTSTATITSFDPETGKVTITTTVSAPPEAGIPAS [r1_234_JUSTAS] | 1.87 ± 0.05 | 1.31 ± 0.057 | 1.63 ± 0.13 |
| SAKTVKVRIELTLTVVKVTLDPETGELKVEEVKTLTLEIELEMSEEDLEKARRALEEELKRLLEELGIPSAG [r14_308_TrROS_Hall] | 3.64 ± 0.29 | 3.78 ± 0.33 | 3.9 ± 0.37 |
| SMPLPFEATVTVPVRDEETGETYTVTVKVEAVNPAVPRPLPDGSIEYEPIPLETVLEIVEKAAEELAKALSA [r9_698_TrMRF] | 1.27 ± 0.074 | 1.55 ± 0.058 | 1.56 ± 0.14 |
| SAKLEIELNGYKIVSVEVNEDGTVKMKIEVDGKLYELTLKVKLPPPKVEVKEEKKEVKEVKFVKEGEEKSAG [r14_218_TrROS_Hall] | 1.18 ± 0.096 | 2.15 ± 0.094 | 2.05 ± 0.3 |
| SAGGSAGGSGGVIDIPVYGEDGEKFIASAPKEVIEKAIKEGKPIEVYVVDDGKIIKKFTISTGSAGGSAGGS [r12_991_TrMRF] | -0.0801 ± 0.092 | -0.0658 ± 0.17 | 0.0354 ± 0.12 |
| SAGKDGDPPKRVRIKFKIPLPGGKLYEVTQTFYPNGSVHVSIRFPNGWMLSAWIPPDGDIEIKIMPIKKSAG [r5_168_TrROS] | 3.37 ± 0.21 | 4.3 ± 0.14 | 4 ± 0.23 |
| SAGGSAGGPEIDLKEVRVFYPPGGERLVLVEVRDDVPLEQVRDWVLERGGEFYRELPNQILVRGSAGGSAGG [r6_543_TrMRF] | 0.0648 ± 0.21 | -0.179 ± 0.34 | -0.00273 ± 0.18 |
| SAGGRKITINWNPNSGEIKVKIIWPDGEKEELPIPVPEGHDSPRQFADELKDNAQERFGEPVKIEITSAGGS [r8_166_TrROS] | -0.223 ± 0.15 | -0.793 ± 0.21 | -0.492 ± 0.4 |
| SAGGSAGGSAGGKMWIMIPKNEPINLPPGFDKVEIMTNPDDGYVMIRVDSPEDFKRLLEASAGGSAGGSAGG [r7_172_TrROS] | 1.405 ± 0.01 | 0.866 ± 0.058 | 1.2 ± 0.065 |
| SAGGSAGGSAGSPKGKPPKPTIEYEPITFEIPNPDGQGFELEISIIRMPGNGQEFIGISFSAGGSAGGSAGG [r11_1024_TrROS] | 0.611 ± 0.086 | 1.86 ± 0.069 | 1.58 ± 0.17 |
| SAGGSAGGSDPTPVVVEFPFSSEEEAEKKAKEAAEKLKAEGVDIKEVKIEYDPEKGTVTLTLGSAGGSAGGS [r20_155_JUSTAS] | 1.36 ± 0.043 | 1.07 ± 0.062 | 1.21 ± 0.11 |
| SAGGSASMIFADDPAQAEAYVKPLFPNGPPFDIVELSEEEGKELVEKLKKEGKPYKVIVIKDPSKPSAGGSA [r15_567_JUSTAS] | 0.192 ± 0.19 | 0.507 ± 0.42 | 0.341 ± 0.3 |
| SAGGMKVTVYPDGTVSVEIEPGQTLTVSLGDKEYTVTAEYPSITITTTPVPVPPPAVPPENVDPSLVSAGGS [r16_600_JUSTAS] | 1.54 ± 0.11 | 0.984 ± 0.051 | 1.23 ± 0.15 |
| SAGGSAGGKPEVKITLVIEVETEEELKALAEELAALLGAEVEVRVERREDGRLLVTVTITVPAESAGGSAGG [r6_719_TrROS_Hall] | 3.28 ± 0.14 | 2.77 ± 0.12 | 2.97 ± 0.096 |
| SAGGKKKIKIIEKKKINGKTILKIEVDGKKIIIIKTPNKVYIFVIDKNGKKKVIEMSPEEALKKLIEKSAGG [r13_98_TrROS_Hall] | 2.08 ± 0.075 | 3.95 ± 0.042 | 3.59 ± 0.13 |

| Sequence | folding stability dG unfold [1] [kcal/mol] | folding stability dG unfold [2] [kcal/mol] | folding stability dG unfold [3] [kcal/mol] |
| --- | --- | --- | --- |
| SAGGKEYTAKVVEIKKVGNKIFIKIKLSDGRELTIEIKTPEEAKKLKVGDTVKITVNEDGSLTIEVLSAGGS [r16_2_TrROS_Hall] | 4.22 ± 0.15 | 4.33 ± 0.064 | 4.29 ± 0.074 |
| SAGGSAVTITVDDFEDIEDAEITLTRPDGRPVVARVRVEKGEGAPRVTVLWREPGSGRYRVETFPLSAGGSA [r15_1006_TrMRF] | 0.925 ± 0.074 | 1.49 ± 0.1 | 1.28 ± 0.07 |
| SAGGSAGGSAGGEPIYIRINNYYIVINLDDGNIRVYPPMKGKKKKVPANDIKPIDPGDISAGGSAGGSAGGS [r10_709_TrROS] | 1.18 ± 0.025 | 0.813 ± 0.071 | 1.07 ± 0.076 |
| SAGGSAGGSAKPLTVEEIIKKLNLPPNVEIVDVKVDYGKTENKPIIVLVLKTKDKPYLPVFASAGGSAGGSA [r18_354_TrMRF] | 1.25 ± 0.097 | 1.91 ± 0.065 | 1.61 ± 0.17 |
| SAMPVFTFPVEIPGPEYTPEEIVAILKEAAAKLNLPVDEEVIRELAEKALAEGTTVADIIEEILKRGLGSAG [r14_364_JUSTAS] | 3.07 ± 0.094 | 1.88 ± 0.045 | 2.52 ± 0.077 |
| SAGGKKFYVEVKINLKDKTIYLIKEVKPGNLEKLIKEIEKKGIKEAGIDEIKIFPKDGYIEIKGGEKSAGGS [r8_219_TrMRF] | 0.279 ± 0.061 | 1.18 ± 0.08 | 0.801 ± 0.1 |
| SAGGSAMPVEFPSEGVVEAVNPKTGKVYLIRYETGDTKTRFVIFEPGTGEVRVIDEDTTFEEAVEDSAGGSA [r15_234_TrMRF] | 0.802 ± 0.036 | 0.382 ± 0.16 | 0.674 ± 0.088 |
| SEGSVRLEFTFTLPDGTRLTVEVTVHYDAATGEFHVSVSVRVEPLPDTSRPWEERPVRLPDGTWVSAADLSA [r9_898_TrMRF] | 2.54 ± 0.071 | 2.28 ± 0.1 | 2.5 ± 0.13 |
| SAGGSAGGSAGGSEVEVLDSRPLPDGHHLVLVRFPDGSYALYRIYPDGSVEVEVFSDDGSAGGSAGGSAGGS [r4_483_TrMRF] | 2.47 ± 0.066 | 4.205 ± 0.029 | 3.81 ± 0.084 |
| SAGGSAGGPEYQMIPVKNVEIDEFDPNDGNVTIKFKGNGQEIKLPPDGIQSIEISPDQGWIYIRSAGGSAGG [r6_315_TrROS] | -0.318 ± 0.093 | -0.365 ± 0.22 | -0.273 ± 0.12 |
| SAGGSAGGSAGVVEPTVVSRAPDGTLTVVLNLPDGSTRTVTDPTNVTIGDRPINALTNASSAGGSAGGSAGG [r11_1017_JUSTAS] | -0.956 ± 0.45 | 0.508 ± 0.042 | 0.222 ± 0.14 |
| SMKKKVVVKAKIEKIRPDGGKEELEEVFVMEVSPDDPEEIKAAIDEAIEALKKAYPNIKKIEIEEVIIEDSA [r9_436_TrMRF] | 3.81 ± 0.24 | 3.36 ± 0.21 | 3.79 ± 0.36 |
| SAPKNYRFKIYFPNGVEFTIPPGWDLEIEEFDPEDGVIRIKMTRYDKDDGKPVEKHDFPFPFRILEPDPSAG [r14_927_TrROS] | 1.73 ± 0.06 | 1.84 ± 0.23 | 1.89 ± 0.25 |
| SAGGSAPSPEVPLWRFEAPGASGGVALIEGYPGGELRVVFFTDDGRPVELTFPVVVLPPAPLEELFSAGGSA [r15_478_TrMRF] | 1.51 ± 0.039 | 1.24 ± 0.086 | 1.38 ± 0.075 |
| SAGGSAGGSAGGSGVSITTTLPVKTTVLQPFNTFENKLLLKEVEKTILTTVTLTLPPLLSAGGSAGGSAGGS [r4_326_JUSTAS] | 0.316 ± 0.068 | -0.0828 ± 0.29 | 0.148 ± 0.21 |
| SAGGSAGGSAGKPEVEVETRLIKIDEEKGYYLRVTRVRVKNEDGSEFEFLSIEIIPKEDLSAGGSAGGSAGG [r11_51_TrROS_Hall] | 2.6 ± 0.098 | 3.91 ± 0.052 | 3.56 ± 0.071 |
| SAGGKDVKPIPVRIKIWYPDDGKPIHEIPVSAYQMDDKIHITFESPELLQFAKELAQKKGFKVEIEPSAGGS [r16_327_TrROS] | 0.513 ± 0.047 | 0.751 ± 0.12 | 0.695 ± 0.11 |
| SAEVVIVIEPGMTEEQVRARLKAALEEALRKGKKVKKIVVKSEEAARRIRDLLKELGVPEEDVEVVLLPSAG [r14_589_TrROS_Hall] | 4.92 ± 0.51 | 3.45 ± 0.17 | 4.93 ± 0.36 |
| SAGGPPVTLTLTLTFTETRTVRNPATGETVTVEKVTLTLTITLEPGMSKEQLEALLKELRELFPSLESAGGS [r8_306_TrROS_Hall] | 3.53 ± 0.25 | 5.15 ± 0.28 | 5.11 ± 0.29 |
| SFIRKDPDGTYVIMGRMPPNMPIEEFLENLPGFKIKDVEYQPDPENGYWYFTLVITPRGKVKIDWVPMGDSA [r9_238_TrROS] | 2 ± 0.03 | 1.91 ± 0.11 | 2 ± 0.11 |
| SAGGSAGGSAFVWNPDTGTFIQLDPNDGTIEVFEIENDNDGKLEPIGTVEVDPDDPDKGTITSAGGSAGGSA [r18_448_TrROS] | 1.75 ± 0.13 | 1.23 ± 0.069 | 1.5 ± 0.1 |
